# Experimental data reported in publication PMC10397247.
# T1: P6bHq
# T1 chain: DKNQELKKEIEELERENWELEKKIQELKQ
# T2: P7bHq
# T2 chain: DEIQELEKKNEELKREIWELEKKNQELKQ
# T3: P5bHq
# T3 chain: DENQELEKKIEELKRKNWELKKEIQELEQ
# T4: P8bHq
# T4 chain: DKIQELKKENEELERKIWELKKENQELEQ
# T5: P4bHq
# T5 chain: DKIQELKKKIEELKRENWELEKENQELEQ
# T6: P9bHq
# T6 chain: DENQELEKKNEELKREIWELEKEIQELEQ
# T7: 4H619-bN
# T7 chain: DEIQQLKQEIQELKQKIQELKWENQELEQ
# T8: 4H3175-bN
# T8 chain: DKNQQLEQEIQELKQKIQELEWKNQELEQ
# T9: 4H3613-bN
# T9 chain: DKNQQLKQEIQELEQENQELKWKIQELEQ
# T10: 4H3162-bN
# T10 chain: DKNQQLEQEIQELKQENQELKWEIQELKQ
# T11: 4H906-bN
# T11 chain: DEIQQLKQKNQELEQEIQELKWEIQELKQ
# T12: 4H3497-bN
# T12 chain: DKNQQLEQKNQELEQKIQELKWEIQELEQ
# T13: 4H3638-bN
# T13 chain: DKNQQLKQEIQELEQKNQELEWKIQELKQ
# T14: 4H3926-bN
# T14 chain: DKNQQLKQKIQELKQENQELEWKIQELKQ
# T15: 4H1804-bN
# T15 chain: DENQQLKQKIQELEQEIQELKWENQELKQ
# T16: 4H3631-bN
# T16 chain: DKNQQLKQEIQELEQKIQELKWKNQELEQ
# T17: 4H3172-bN
# T17 chain: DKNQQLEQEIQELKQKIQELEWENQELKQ
# T18: 4H591-bN
# T18 chain: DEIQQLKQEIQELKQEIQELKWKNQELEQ
# T19: 4H3974-bN
# T19 chain: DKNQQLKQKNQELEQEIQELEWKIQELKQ
# T20: 4H235-bN
# T20 chain: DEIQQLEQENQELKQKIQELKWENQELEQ
# T21: 4H3858-bN
# T21 chain: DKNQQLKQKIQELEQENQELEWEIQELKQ
# T22: 4H1985-bN
# T22 chain: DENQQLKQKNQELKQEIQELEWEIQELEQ
# T23: 4H3414-bN
# T23 chain: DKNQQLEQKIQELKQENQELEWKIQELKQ
# T24: 4H3298-bN
# T24 chain: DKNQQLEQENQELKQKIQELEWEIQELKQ
# T25: 4H3817-bN
# T25 chain: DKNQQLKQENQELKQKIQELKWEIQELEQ
# T26: 4H1899-bN
# T26 chain: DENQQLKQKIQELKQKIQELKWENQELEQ
# T27: 4H584-bN
# T27 chain: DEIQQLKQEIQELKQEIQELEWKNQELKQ
# T28: 4H3628-bN
# T28 chain: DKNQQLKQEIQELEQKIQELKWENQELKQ
# T29: 4H1710-bN
# T29 chain: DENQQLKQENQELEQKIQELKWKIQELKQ
# T30: 4H570-bN
# T30 chain: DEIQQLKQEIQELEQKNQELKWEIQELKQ
# T31: 4H3129-bN
# T31 chain: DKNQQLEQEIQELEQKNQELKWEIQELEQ
# T32: 4H3277-bN
# T32 chain: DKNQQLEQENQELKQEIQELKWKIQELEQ
# T33: 4H850-bN
# T33 chain: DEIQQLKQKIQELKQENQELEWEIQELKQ
# T34: P3bH1
# T34 chain: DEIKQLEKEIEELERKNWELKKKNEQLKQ
# T35: 4H3462-bN
# T35 chain: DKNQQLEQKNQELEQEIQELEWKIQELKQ
# T36: 4H3926-bA
# T36 chain: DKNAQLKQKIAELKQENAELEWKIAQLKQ
# T37: 4H626-bN
# T37 chain: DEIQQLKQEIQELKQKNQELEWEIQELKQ
# B1: P4bHq (peptide)
# chain: DKIQELKKKIEELKRENWELEKENQELEQ
# B2: 4H1710-bN (peptide)
# chain: DENQQLKQENQELEQKIQELKWKIQELKQ
# Key:
# Test in all cases: two-hybrid library CCNG1;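 also: natural log of median RNA to DNA barcode read ratio; higher means stronger binding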
# P6bHq = biological target: T1, P6bHq
# P7bHq = biological target: T2, P7bHq
# P5bHq = biological target: T3, P5bHq
# P8bHq = biological target: T4, P8bHq
# P4bHq = biological target: T5, P4bHq
# P9bHq = biological target: T6, P9bHq
# 4H619-bN = biological target: T7, 4H619-bN
# 4H3175-bN = biological target: T8, 4H3175-bN
# 4H3613-bN = biological target: T9, 4H3613-bN
# 4H3162-bN = biological target: T10, 4H3162-bN
# 4H906-bN = biological target: T11, 4H906-bN
# 4H3497-bN = biological target: T12, 4H3497-bN
# 4H3638-bN = biological target: T13, 4H3638-bN
# 4H3926-bN = biological target: T14, 4H3926-bN
# 4H1804-bN = biological target: T15, 4H1804-bN
# 4H3631-bN = biological target: T16, 4H3631-bN
# 4H3172-bN = biological target: T17, 4H3172-bN
# 4H591-bN = biological target: T18, 4H591-bN
# 4H3974-bN = biological target: T19, 4H3974-bN
# 4H235-bN = biological target: T20, 4H235-bN
# 4H3858-bN = biological target: T21, 4H3858-bN
# 4H1985-bN = biological target: T22, 4H1985-bN
# 4H3414-bN = biological target: T23, 4H3414-bN
# 4H3298-bN = biological target: T24, 4H3298-bN
# 4H3817-bN = biological target: T25, 4H3817-bN
# 4H1899-bN = biological target: T26, 4H1899-bN
# 4H584-bN = biological target: T27, 4H584-bN
# 4H3628-bN = biological target: T28, 4H3628-bN
# 4H1710-bN = biological target: T29, 4H1710-bN
# 4H570-bN = biological target: T30, 4H570-bN
# 4H3129-bN = biological target: T31, 4H3129-bN
# 4H3277-bN = biological target: T32, 4H3277-bN
# 4H850-bN = biological target: T33, 4H850-bN
# P3bH1 = biological target: T34, P3bH1
# 4H3462-bN = biological target: T35, 4H3462-bN
# 4H3926-bA = biological target: T36, 4H3926-bA
# 4H626-bN = biological target: T37, 4H626-bN
binder,measurement,setting,value
B1,interaction score,P6bHq,-0.00957
same,interaction score,P7bHq,-1.11
same,interaction score,P5bHq,-1.27
same,interaction score,P8bHq,-0.273
same,interaction score,P4bHq,-0.613
same,interaction score,P9bHq,-0.875
B2,interaction score,4H619-bN,0.707
same,interaction score,4H3175-bN,-0.28
same,interaction score,4H3613-bN,-0.41
same,interaction score,4H3162-bN,0.233
same,interaction score,4H906-bN,0.452
same,interaction score,4H3497-bN,0.701
same,interaction score,4H3638-bN,-0.0052
same,interaction score,4H3926-bN,-0.569
same,interaction score,4H1804-bN,-0.254
same,interaction score,4H3631-bN,0.993
same,interaction score,4H3172-bN,-0.194
same,interaction score,4H591-bN,-0.724
same,interaction score,4H3974-bN,0.85
same,interaction score,4H235-bN,-2.91
same,interaction score,4H3858-bN,-0.718
same,interaction score,4H1985-bN,1.36
same,interaction score,4H3414-bN,-0.297
same,interaction score,4H3298-bN,0.498
same,interaction score,4H3817-bN,1.23
same,interaction score,4H1899-bN,0.0366
same,interaction score,4H584-bN,0.273
same,interaction score,4H3628-bN,1.45
same,interaction score,4H1710-bN,0.191
same,interaction score,4H570-bN,0.578
same,interaction score,4H3129-bN,-0.785
same,interaction score,4H3277-bN,0.0226
same,interaction score,4H850-bN,0.177
same,interaction score,P3bH1,-2.08
same,interaction score,4H3462-bN,-0.312
same,interaction score,4H3926-bA,-0.849
same,interaction score,4H626-bN,0.722
